Assay results published in patent publication US20190284243A1 (UNIVERSITY OF COPENHAGEN, published 2019).
Ends that are not written are not given here. PEGA1900 = not defined here

B1: β-body KTGTQNLTGPGRTHTQTATEG (SEQ ID NO: 3) (peptide)
peptide: KTGTQNLTGPGRTHTQTATEG
notes: Found from a one-bead-one-compound library K(TX)4PG(XT)4EG
B2: β-body (3) TFTFTFPGLTRTHT (SEQ ID NO: 59) (designed binder)
peptide: TFTFTFPGLTRTHT
modifications: also: with a fluorescent probe, place not given here
notes: The text calls it a modified version of (2); also called fluorescent-(3)
B3: hexapeptide HRMVRG (SEQ ID NO: 4) (peptide)
peptide: HRMVRG-PEGA1900
modifications: reading uncertain
notes: also called HRMVRG-PEGA1900; hexapeptide partner

What was measured:
[1] = target: B3; assay: pairs of beads of two libraries adhering to each other, identified by MSMS
Procedure: This example illustrates how to identify a β-body recognizing a linear peptide. A split-mix library of 21.000.000 β-bodies according to the invention were prepared by combinatorial synthesis as described in Example 4 above. This was performed on 100 μm beads with no fluorescence. A second split mix library of 470.000 hexapeptides were prepared in a similar manner except that this library was prepared on larger 400 μm beads with fluorescence label attached to some functional groups. The two libraries were mixed and pairs of beads adhering to each other in pairs with one large fluorescent and one small non-fluorescent bead were collected and the two peptides were identified by MSMS. […] EGFP is an abbreviation of Enhanced Green Fluorescent Protein.

[2] = target: T1, β-body (2) TTYTYPGDTFTI (SEQ ID NO: 58) (with a fluorescent probe (2-F*) or on beads, by assay); assay: fluorescent β-body on beads modified with (2)
T1 construct: the assay field says which was which; also called 2-F*; bead-(2)
T1 peptide: TTYTYPGDTFTI

[3] = target: T2, Enhanced Green Fluorescent Protein (UniProt P42212 1-238 = GFP); assay: green fluorescence on HRMVRG-PEGA1900 beads
T2 construct: treated as one molecule; also called EGFP; eGFP

B1: binds [1].

For B2, the “fold reduction of binding against fluorescent-(1)” value [2] was 7 fold.

B3: no binding [3].
